Reference: the RNAGym collection of RNA variant scans (doi:10.1093/molbev/msab373)

B1: Azoarcus group I ribozyme (parent)
chain: GUGCCUUGCGCCGGGAAACCACGCAAGGGAUGGUGUCAAAUUCGGCGAAACCUAAGCGCCCGCCCGGGCGUAUGGCAACGCCGAGCCAAGCUUCGGCGCCUGCGCCGAUGAAGGUGUAGAGACUAGACGGCACCCACCUAAGGCAAACGCUAUGGUGAAGGCAUAGUCCAGGGAGUGGCGAAAGUCACACAAACCGG

Variants of: B1
Assay: reverse-splicing fitness (ratio to wild type); higher = more active; in vitro selection; Mg2+ level not given
Outline: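 An in vitro group I ribozyme library with randomized positions was T7-transcribed and gel-purified. In triplicate, 10 pmol RNA in EPPS pH 7.5 was reacted with 50 pmoles of a 30-nt RNA substrate for 1 h at 37 °C across several added MgCl2 levels (1–48 mM), then stopped with EDTA. Products were reverse transcribed from a substrate-complementary primer, PCR-amplified and sequenced (HiSeq 4000). Fitness is a variant's read proportion after selection over that before, normalised to wild type.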
C82A A111G A120C A145U C169U U176G showed a reverse-splicing fitness of 0.00505.
Work on C82A A111G A120C A145G U176C yielded a reverse-splicing fitness of 0.0327.
With C82A A111G A120C A145G U176G the reverse-splicing fitness was 0.00889.
Variant C82A A111G A120C A145G U176A has a reverse-splicing fitness of 0.0183.
C82A A111G A120C C150G C169G U176A gave a reverse-splicing fitness of 0.00731.
With C82A A111G A120C C150G C169G U176C the reverse-splicing fitness was 0.00485.
In the case of C82A A111G A120C C150G C169G U176G, the reverse-splicing fitness is reported as 0.00561.
Work on C82A A111G A120C C150U C169U yielded a reverse-splicing fitness of 0.0116.
Work on C82A A111G A120C C150U C169G yielded a reverse-splicing fitness of 0.00852.
C82A A111G A120C C150U C169A showed a reverse-splicing fitness of 0.00986.
With C82A A111G A120G A145G C150A C169A U176A the reverse-splicing fitness was 0.0205.
Variant C82A A111G A120G A145G C150A C169A U176C has a reverse-splicing fitness of 0.0218.
C82A A111G A120G A145G C150A C169A U176G gave a reverse-splicing fitness of 0.00687.
For C82A A111G A120G A145C C169A U176A, the reverse-splicing fitness was 0.0117.
In the case of C82A A111G A120G A145C C169A U176C, the reverse-splicing fitness is reported as 0.00752.
Variant C82A A111G A120G A145C C169A U176G has a reverse-splicing fitness of 0.00385.
For C82A A111G A120C A145G C150A C169A, the reverse-splicing fitness was 0.0119.
C82A A111G A120C A145G C150A C169G showed a reverse-splicing fitness of 0.00915.
With C82A A111G A120C A145G C150A C169U the reverse-splicing fitness was 0.00999.
Variant C82A A111G A120C A145U C169A U176C has a reverse-splicing fitness of 0.0152.
Variant C82A A111G A120C A145U C169A U176A has a reverse-splicing fitness of 0.0138.
For C82A A111G A120C A145U C169A U176G, the reverse-splicing fitness was 0.00526.
Work on C82A A111G A120G A145C C169A yielded a reverse-splicing fitness of 0.00912.
C82A A111G A120G A145C C169G gave a reverse-splicing fitness of 0.0122.
With C82A A111G A120G A145C C169U the reverse-splicing fitness was 0.0103.
With C82A A111G A120C C150U C169G U176C the reverse-splicing fitness was 0.0203.
For C82A A111G A120C C150U C169G U176A, the reverse-splicing fitness was 0.0173.
In the case of C82A A111G A120C C150U C169G U176G, the reverse-splicing fitness is reported as 0.00643.
Variant C82A A111G A120G A145C C150A C169G has a reverse-splicing fitness of 0.00922.
In the case of C82A A111G A120G A145C C150A C169A, the reverse-splicing fitness is reported as 0.00942.
C82A A111G A120G A145C C150A C169U gave a reverse-splicing fitness of 0.00881.
In the case of C82A A111G A120G A145G C150U C169A U176C, the reverse-splicing fitness is reported as 0.0174.
For C82A A111G A120G A145G C150U C169A U176A, the reverse-splicing fitness was 0.016.
For C82A A111G A120G A145G C150U C169A U176G, the reverse-splicing fitness was 0.0063.
In the case of C82A A111G A120C A145U C169G U176A, the reverse-splicing fitness is reported as 0.0135.
With C82A A111G A120C A145U C169G U176G the reverse-splicing fitness was 0.00526.
C82A A111G A120C A145U C169G U176C gave a reverse-splicing fitness of 0.0172.
For C82A A111G A120C A145U C150U C169G U176G, the reverse-splicing fitness was 0.00539.
In the case of C82A A111G A120C A145U C150U C169G U176A, the reverse-splicing fitness is reported as 0.0145.
For C82A A111G A120C A145U C150U C169G U176C, the reverse-splicing fitness was 0.0191.
In the case of C82A A111G A120G A145C C150U C169A U176C, the reverse-splicing fitness is reported as 0.00635.
C82A A111G A120G A145C C150U C169A U176A gave a reverse-splicing fitness of 0.0114.
Variant C82A A111G A120G A145C C150U C169A U176G has a reverse-splicing fitness of 0.00561.
Work on C82A A111G A120C C150U C169A U176C yielded a reverse-splicing fitness of 0.0154.
For C82A A111G A120C C150U C169A U176G, the reverse-splicing fitness was 0.00635.
With C82A A111G A120C C150U C169A U176A the reverse-splicing fitness was 0.0187.
For C82A A111G A120G A145U C150A, the reverse-splicing fitness was 0.00927.
C82A A111G A120C A145G C169A showed a reverse-splicing fitness of 0.0112.
C82A A111G A120C A145G C169U showed a reverse-splicing fitness of 0.013.
In the case of C82A A111G A120C A145G C169G, the reverse-splicing fitness is reported as 0.00928.
C82A A111G A120G A145G C150A C169U U176A showed a reverse-splicing fitness of 0.0192.
With C82A A111G A120G A145G C150A C169U U176G the reverse-splicing fitness was 0.00673.
In the case of C82A A111G A120G A145G C150A C169U U176C, the reverse-splicing fitness is reported as 0.0184.
For C82A A111G A120G A145G C150U U176A, the reverse-splicing fitness was 0.00945.
With C82A A111G A120G A145G C150U U176G the reverse-splicing fitness was 0.00788.
In the case of C82A A111G A120G A145G C150U U176C, the reverse-splicing fitness is reported as 0.0182.
For C82A A111G A120C A145U C150U C169U, the reverse-splicing fitness was 0.0117.
Variant C82A A111G A120C A145U C150U C169G has a reverse-splicing fitness of 0.00921.
Work on C82A A111G A120C A145U C150U C169A yielded a reverse-splicing fitness of 0.0102.
C82A A111G A120G A145C C150G U176C gave a reverse-splicing fitness of 0.0087.
For C82A A111G A120G A145C C150G U176A, the reverse-splicing fitness was 0.0058.
C82A A111G A120G A145C C150G U176G showed a reverse-splicing fitness of 0.00287.
For C82A A111G A120C A145U C150G U176C, the reverse-splicing fitness was 0.00993.
C82A A111G A120C A145U C150G U176G showed a reverse-splicing fitness of 0.00395.
C82A A111G A120C A145U C150G U176A showed a reverse-splicing fitness of 0.00605.
Work on C82A A111G A120G A145G C150G C169U U176A yielded a reverse-splicing fitness of 0.0118.
C82A A111G A120G A145G C150G C169U U176C showed a reverse-splicing fitness of 0.0133.
In the case of C82A A111G A120G A145G C150G C169U U176G, the reverse-splicing fitness is reported as 0.00793.
C82A A111G A120C A145U C169G gave a reverse-splicing fitness of 0.00967.
Variant C82A A111G A120C A145U C169A has a reverse-splicing fitness of 0.00859.
C82A A111G A120C A145U C169U showed a reverse-splicing fitness of 0.0135.
Work on C82A A111G A120C A145G C150A C169A U176A yielded a reverse-splicing fitness of 0.019.
Work on C82A A111G A120C A145G C150A C169A U176G yielded a reverse-splicing fitness of 0.00941.
For C82A A111G A120C A145G C150A C169A U176C, the reverse-splicing fitness was 0.0211.
C82A A111G A120G A145C C150G C169U U176C gave a reverse-splicing fitness of 0.0141.
Variant C82A A111G A120G A145C C150G C169U U176A has a reverse-splicing fitness of 0.0129.
In the case of C82A A111G A120G A145C C150G C169U U176G, the reverse-splicing fitness is reported as 0.00529.
For C82A A111G A120C A145U C150A C169U, the reverse-splicing fitness was 0.00961.
C82A A111G A120C A145U C150A C169G showed a reverse-splicing fitness of 0.00948.
Variant C82A A111G A120C A145U C150A C169A has a reverse-splicing fitness of 0.0111.
For C82A A111G A120C C150G C169U, the reverse-splicing fitness was 0.00991.
C82A A111G A120C C150G C169A showed a reverse-splicing fitness of 0.00992.
C82A A111G A120C C150G C169G showed a reverse-splicing fitness of 0.00727.
In the case of C82A A111G A120C C169G U176A, the reverse-splicing fitness is reported as 0.0206.
